Consider 18 molecules from patent US20250326813A1 (ELPIS BIOPHARMACEUTICALS, published 2025).

The target in assay [1] is T1, human IL2Rα Fc fusion protein (human, UniProt P01589 22-213, limits assumed).
T1 construct: also called CD25; not shown: Fc part
T1 sequence (looked up): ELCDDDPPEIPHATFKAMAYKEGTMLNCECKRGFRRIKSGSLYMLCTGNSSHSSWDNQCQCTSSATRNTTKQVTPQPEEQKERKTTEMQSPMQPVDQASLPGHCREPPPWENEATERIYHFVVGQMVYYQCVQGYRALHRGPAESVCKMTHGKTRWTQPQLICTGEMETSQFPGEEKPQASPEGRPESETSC
The assay can be described thus: SPR (Biacore T200), receptor captured on Protein A chip, IL2 at 100 nM and 20 nM. How it is done:
The assay was run with Biacore T200 control software version 2.0. For each cycle, 1 μg/mL of human IL2Rβ or IL2Rα was captured for 60 seconds at flow rate of 10 μL/min on flow cell 2 in 1× HBSP buffer on Protein A sensor chip. 100 nM and 20 nM of HIS tag purified engineered IL2 mutant was injected onto both reference flow cell 1 and IL2Rβ or IL2Rα captured flow cell 2 for 150 seconds at flow rate of 30 μL/min followed by washing for 300 seconds. The flow cells were then regenerated with Glycine pH 2 for 60 seconds at a flow rate of 30 μL/mins. The kinetics data was analyzed with Biacore T200 evaluation software 3000. The specific binding response unit was derived from subtraction of binding to reference flow cell 1 from target flow cell 2.

In assay [2] the target is T1, human IL2Rα Fc fusion protein. The assay can be described thus: ELISA, single concentration, anti-flag detection, E. coli-produced clone. As to the method:
(§1) Supernatants containing engineered IL2 mutants were assessed with sandwich ELISA assay to screen for IL2Rα binding. Briefly, 96-well plate was immobilized with human Fc and human IL2Rα, respectively, at a final concentration of 2 μg/mL in 1× PBS in total volume of 50 μL per well. The plate was incubated overnight at 4° C. followed by blocking with 200 μL of superblock per well for 1 hour. 100 μl of supernatant was added to both Fc and IL2Rα immobilized wells and incubated for 1 hour with shaking. The engineered IL2 mutant binding was detected by adding 50 μL of anti-Flag HRP diluted at 1:5000 in 1× PBST. In between each step, the plate was washed three times with 1× PBST in a plate washer. The plate was then developed with 50 μL of TMB substrate for five minutes and stopped by adding 50 μL of 2N sulfuric acid. The plate was read at OD450 nm using a Biotek plate reader and the binding and selectivity was analyzed.
as §1, with “Single clones were next screened for IL2Rβ binding. IL2Rβ binding screening ELISA was developed for the identification of individual” for “Supernatants containing”, “mutant.” for “mutants were assessed with sandwich ELISA assay to screen for IL2Rα binding.”, “IL2Rβ,” for “IL2Rα,”, “IL2Rβ” for “IL2Rα”
(§2) To further triage, the engineered IL2 clones with unique sequences were produced in E. coli. In short, the glycerol stock of each engineered agonist clone was inoculated into TB medium for overnight growth. The next day, cells from the overnight culture were inoculated into TB medium and grown to a cell density of OD₆₀₀ between 0.6-0.8. IPTG was added to a final concentration of 1 mM to induce the expression during culture at 30° C. overnight. The supernatant was collected by centrifugation.
(An ELISA detects its analyte on a solid surface through an enzyme-linked reagent.)

For assay [3], the target named is T2, human IL2Rβ Fc fusion protein (human, UniProt P14784 27-239).
T2 construct: also called ILR2β; CD122; not shown: Fc part
T2 sequence (looked up): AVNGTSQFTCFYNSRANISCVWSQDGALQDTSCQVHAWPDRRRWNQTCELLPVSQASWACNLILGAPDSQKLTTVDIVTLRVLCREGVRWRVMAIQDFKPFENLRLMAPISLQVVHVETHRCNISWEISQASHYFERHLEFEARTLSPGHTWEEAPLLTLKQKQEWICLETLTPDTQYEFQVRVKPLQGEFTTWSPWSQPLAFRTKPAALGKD
The assay is described as above. As to the method:
as §1
as §1, with “Single clones were next screened for IL2Rβ binding. IL2Rβ binding screening ELISA was developed for the identification of individual” for “Supernatants containing”, “mutant.” for “mutants were assessed with sandwich ELISA assay to screen for IL2Rα binding.”, “IL2Rβ,” for “IL2Rα,”, “IL2Rβ” for “IL2Rα”
as §2

B1: EP564 (clone 2021EP22-E11), E. coli-produced (ligand)
chain: APASSSTKKTQLQLEHLLLDLQMILNGINNYKNPKLTRMLTFKFYMPKKATELKHLQCLEEELKPLEEVLNLAQSKNFHLRFKALIIEINFIVQLLKGSETTFMCEYADETATIVEFLNRWITFSQSIISTLT
Usually Kd stands for the equilibrium constant for the complex coming apart. On to B1, for which, in assay [1], the equilibrium dissociation constant (Kd) amounted to 0.018 µM. Moreover, the OD450 nm in assay [2] came to 0.086 OD450.

B2: EP576 (clone 2021EP21-C10), E. coli-produced (ligand)
chain: APASSSTKKTQLQLEHLLLDLQMILNGINNYKNPKLTRMLTFKFYMPKKATELKHLQCLEEELKPLEEVLNLAQSKNFHLLPRNKISKTKVMVHELKGSETTFMCEYADETATIVEFLNRWITFSQSIISTLT
For the molecule B2, in assay [1], the affinity, expressed as Kd, was 0.143 µM. The results for the OD450 nm in assay [3] and in assay [2] were 1.12 OD450 and 0.361 OD450, respectively.

B3: EP583 (clone 2021EP16-H10), E. coli-produced (ligand)
chain: APASSSTKKTQLQLEHLLLDLQMILNGINNYKNPKLTRMLTFKFYMPKKATELKHLQCLEEELKPLEEVLNLAQSKNFHLSAIDLMSSVKVVVWKLKGSETTFMCEYADETATIVEFLNRWITFSQSIISTLT
Consider B3, for which the OD450 nm in assay [3] was determined as 0.323 OD450; in assay [2] it was 0.749 OD450.

B4: EP586 (clone 2021EP16-E07), E. coli-produced (ligand)
chain: APASSSTKKTQLQLEHLLLDLQMILNGINNYKNPKLTRMLTFKFYMPKKATELKHLQCLEEELKPLEEVLNLAQSKNFHLRPRDSRRLISVIVFRLKGSETTFMCEYADETATIVEFLNRWITFSQSIISTLT
In assay [3], B4 came in with an OD450 nm of 0.505 OD450.

B5: EP581 (clone 2021EP16-C10), E. coli-produced (ligand)
chain: APASSSTKKTQLQLEHLLLDLQMILNGINNYKNPKLTRMLTFKFYMPKKATELKHLQCLEEELKPLEEVLNLAQSKNFHLRSREVVSRIDAIILELKGSETTFMCEYADETATIVEFLNRWITFSQSIISTLT
The molecule B5 came in with a Kd in assay [1] of 0.106 µM. Moreover, the results for the OD450 nm in assay [3] and in assay [2] were 0.127 OD450 and 0.88 OD450, respectively.

B6: EP565 (clone 2021EP22-F10), E. coli-produced (ligand)
chain: APASSSTKKTQLQLEHLLLDLQMILNGINNYKNPKLTRMLTFKFYMPKKATELKHLQCLEEELKPLEEVLNLAQSKNFHLRSRQLISNMNGIILKLKGSETTFMCEYADETATIVEFLNRWITFSQSIISTLT
Turning to B6, binding in assay [1] was characterised by a dissociation constant (Kd) of 0.142 µM. The OD450 nm in assay [2] is 0.105 OD450.

B7: EP575 (clone 2021EP16-D09), E. coli-produced (ligand)
chain: APASSSTKKTQLQLEHLLLDLQMILNGINNYKNPKLTRMLTFKFYMPKKATELKHLQCLEEELKPLEEVLNLAQSKNFHLRNKGILGDISNIVLALKGSETTFMCEYADETATIVEFLNRWITFSQSIISTLT
In assay [1], B7 registered a Kd of 0.0983 µM. For the same molecule, the OD450 nm in assay [3] was 0.057 OD450; in assay [2], 1.25 OD450.

B8: EP577 (clone 2021EP16-E05), E. coli-produced (ligand)
chain: APASSSTKKTQLQLEHLLLDLQMILNGINNYKNPKLTRMLTFKFYMPKKATELKHLQCLEEELKPLEEVLNLAQSKNFHLKAIAFISDLKVRVLDLKGSETTFMCEYADETATIVEFLNRWITFSQSIISTLT
In assay [1], B8 yielded a Kd of 0.956 µM. The OD450 nm is 0.149 OD450 in assay [3] and 0.771 OD450 in assay [2].

B9: EP578 (clone 2021EP16-H02), E. coli-produced (ligand)
chain: APASSSTKKTQLQLEHLLLDLQMILNGINNYKNPKLTRMLTFKFYMPKKATELKHLQCLEEELKPLEEVLNLAQSKNFHLTTRDVVMTMARIDLELKGSETTFMCEYADETATIVEFLNRWITFSQSIISTLT
In assay [1], B9 registered a Kd of 9.34 µM. Moreover, the OD450 nm in assay [2] is 0.857 OD450.

B10: EP574 (clone 2021EP22-B04), E. coli-produced (ligand)
chain: APASSSTKKTQLQLEHLLLDLQMILNGINNYKNPKLTRMLTFKFYMPKKATELKHLQCLEEELKPLEEVLNLAQSKNFHLFTKDLTSTMQILVLQLKGSETTFMCEYADETATIVEFLNRWITFSQSIISTLT
In assay [1], B10 returned a Kd of 0.207 µM. The same molecule had an OD450 nm in assay [2] of 0.171 OD450.

B11: EP569 (clone 2021EP22-E03), E. coli-produced (ligand)
chain: APASSSTKKTQLQLEHLLLDLQMILNGINNYKNPKLTRMLTFKFYMPKKATELKHLQCLEEELKPLEEVLNLAQSKNFHLRRKESINHMIVVFPVLKGSETTFMCEYADETATIVEFLNRWITFSQSIISTLT
Take B11: the Kd in assay [1] worked out at 0.0478 µM. This molecule also displayed an OD450 nm in assay [2] of 0.433 OD450.

B12: EP571 (clone 2021EP22-H02), E. coli-produced (ligand)
chain: APASSSTKKTQLQLEHLLLDLQMILNGINNYKNPKLTRMLTFKFYMPKKATELKHLQCLEEELKPLEEVLNLAQSKNFHLRPSELMATMRVPVQALKGSETTFMCEYADETATIVEFLNRWITFSQSIISTLT
On to B12, for which, in assay [1], the Kd stood at 0.117 µM. Besides, the OD450 nm was found to be 0.653 OD450 in assay [3] and 0.423 OD450 in assay [2].

B13: EP573 (clone 2021EP16-E02), E. coli-produced (ligand)
chain: APASSSTKKTQLQLEHLLLDLQMILNGINNYKNPKLTRMLTFKFYMPKKATELKHLQCLEEELKPLEEVLNLAQSKNFHLNRTDLVGDVNATIKALKGSETTFMCEYADETATIVEFLNRWITFSQSIISTLT
B13 yielded a Kd in assay [1] of 0.0551 µM. Besides, the OD450 nm was found to be 0.07 OD450 in assay [3] and 1.58 OD450 in assay [2].

B14: EP582 (clone 2021EP16-G10), E. coli-produced (ligand)
chain: APASSSTKKTQLQLEHLLLDLQMILNGINNYKNPKLTRMLTFKFYMPKKATELKHLQCLEEELKPLEEVLNLAQSKNFHLTHRDVISDVNVLALELKGSETTFMCEYADETATIVEFLNRWITFSQSIISTLT
In assay [1], B14 had a Kd of 0.151 µM. For the same molecule, the results for the OD450 nm in assay [3] and in assay [2] were 0.337 OD450 and 1.08 OD450, respectively.

B15: EP579 (clone 2021EP16-E11), E. coli-produced (ligand)
chain: APASSSTKKTQLQLEHLLLDLQMILNGINNYKNPKLTRMLTFKFYMPKKATELKHLQCLEEELKPLEEVLNLAQSKNFHLRPSYIVSYTNVFPLVLKGSETTFMCEYADETATIVEFLNRWITFSQSIISTLT
B15 had an OD450 nm in assay [3] of 0.611 OD450.

B16: EP570 (clone 2021EP21-E03), E. coli-produced (ligand)
chain: APASSSTKKTQLQLEHLLLDLQMILNGINNYKNPKLTRMLTFKFYMPKKATELKHLQCLEEELKPLEEVLNLAQSKNFHLSSSGLLGDVWVIVLDLKGSETTFMCEYADETATIVEFLNRWITFSQSIISTLT
On to B16, for which the dissociation constant (Kd) in assay [1] was 0.0213 µM. In assay [2], the OD450 nm was determined as 0.528 OD450.

B17: EP572 (clone 2021EP21-C03), E. coli-produced (ligand)
chain: APASSSTKKTQLQLEHLLLDLQMILNGINNYKNPKLTRMLTFKFYMPKKATELKHLQCLEEELKPLEEVLNLAQSKNFHLRARDIVRNAKVGVQELKGSETTFMCEYADETATIVEFLNRWITFSQSIISTLT
In assay [1], B17 gave a dissociation constant Kd of 0.0755 µM. Also, the figures for the OD450 nm in assay [3] and in assay [2] were 0.143 OD450 and 0.079 OD450, respectively.

B18: EP566 (clone 2021EP22-H09), E. coli-produced (ligand)
chain: APASSSTKKTQLQLEHLLLDLQMILNGINNYKNPKLTRMLTFKFYMPKKATELKHLQCLEEELKPLEEVLNLAQSKNFHLRLTHLRNVIGVILVQLKGSETTFMCEYADETATIVEFLNRWITFSQSIISTLT
In the case of B18, the Kd in assay [1] was 0.523 µM. The OD450 nm in assay [2] was found to be 0.251 OD450.
